Assay results published in publication PMC3817407.
“And” between values parts separate entries of the source, which are not always exact repeats. Equal values may be shown once.

T1: ECF11_3726
T1 chain: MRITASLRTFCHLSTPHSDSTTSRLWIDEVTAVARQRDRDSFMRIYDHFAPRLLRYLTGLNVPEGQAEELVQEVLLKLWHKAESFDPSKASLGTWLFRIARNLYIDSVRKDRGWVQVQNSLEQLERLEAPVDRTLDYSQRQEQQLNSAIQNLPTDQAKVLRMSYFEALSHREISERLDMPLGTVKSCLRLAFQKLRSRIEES

T2: ECF22_1147
T2 chain: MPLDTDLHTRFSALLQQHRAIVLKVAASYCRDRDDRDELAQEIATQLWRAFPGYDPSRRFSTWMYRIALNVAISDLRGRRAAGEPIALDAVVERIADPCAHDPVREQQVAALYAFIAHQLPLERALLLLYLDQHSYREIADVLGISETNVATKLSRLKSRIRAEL

T3: ECF01_3473
T3 chain: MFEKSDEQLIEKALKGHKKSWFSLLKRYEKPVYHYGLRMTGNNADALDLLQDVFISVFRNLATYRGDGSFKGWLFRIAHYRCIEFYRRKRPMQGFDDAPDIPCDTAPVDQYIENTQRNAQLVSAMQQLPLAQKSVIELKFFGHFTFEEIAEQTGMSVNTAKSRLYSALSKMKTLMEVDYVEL

T4: ECF34_1384
T4 chain: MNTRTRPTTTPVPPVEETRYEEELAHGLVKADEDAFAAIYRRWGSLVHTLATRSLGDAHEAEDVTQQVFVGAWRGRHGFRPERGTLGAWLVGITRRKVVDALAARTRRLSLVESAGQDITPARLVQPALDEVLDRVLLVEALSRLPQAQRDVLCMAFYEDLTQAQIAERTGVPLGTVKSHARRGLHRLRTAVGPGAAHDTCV

T5: ECF16_3622
T5 chain: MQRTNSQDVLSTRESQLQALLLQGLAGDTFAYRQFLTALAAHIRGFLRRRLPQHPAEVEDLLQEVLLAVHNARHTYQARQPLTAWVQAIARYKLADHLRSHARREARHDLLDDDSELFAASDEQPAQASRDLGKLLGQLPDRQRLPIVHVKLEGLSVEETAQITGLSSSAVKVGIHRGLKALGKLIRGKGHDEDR

T6: ECF15_524
T6 chain: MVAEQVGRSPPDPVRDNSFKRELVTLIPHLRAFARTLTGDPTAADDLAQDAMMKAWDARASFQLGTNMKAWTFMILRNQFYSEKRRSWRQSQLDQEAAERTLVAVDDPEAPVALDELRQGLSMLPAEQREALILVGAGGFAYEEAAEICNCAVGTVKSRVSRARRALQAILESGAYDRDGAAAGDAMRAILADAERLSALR

T7: ECF12_807
T7 chain: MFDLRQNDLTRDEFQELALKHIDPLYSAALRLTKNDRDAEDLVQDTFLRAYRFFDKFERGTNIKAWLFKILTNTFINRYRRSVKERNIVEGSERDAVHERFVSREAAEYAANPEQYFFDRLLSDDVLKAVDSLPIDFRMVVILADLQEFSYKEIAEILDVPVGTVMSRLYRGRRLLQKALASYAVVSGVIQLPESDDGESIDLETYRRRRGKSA

T8: ECF04_1609
T8 chain: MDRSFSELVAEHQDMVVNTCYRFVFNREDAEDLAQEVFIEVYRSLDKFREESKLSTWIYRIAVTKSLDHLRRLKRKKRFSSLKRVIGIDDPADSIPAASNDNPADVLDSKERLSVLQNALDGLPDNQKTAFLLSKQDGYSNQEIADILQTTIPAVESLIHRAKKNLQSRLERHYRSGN

T9: ECF17_1691
T9 chain: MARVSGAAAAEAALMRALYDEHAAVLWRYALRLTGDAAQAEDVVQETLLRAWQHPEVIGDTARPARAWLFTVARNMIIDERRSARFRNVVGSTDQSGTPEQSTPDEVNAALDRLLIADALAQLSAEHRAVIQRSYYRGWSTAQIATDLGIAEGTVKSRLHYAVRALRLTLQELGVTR

T10: ECF28_1088
T10 chain: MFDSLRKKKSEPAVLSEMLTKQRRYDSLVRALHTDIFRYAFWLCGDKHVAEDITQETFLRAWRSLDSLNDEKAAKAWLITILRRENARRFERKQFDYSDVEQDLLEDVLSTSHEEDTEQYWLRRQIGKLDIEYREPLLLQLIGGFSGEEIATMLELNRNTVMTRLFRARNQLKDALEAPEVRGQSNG

T11: ECF16_973
T11 chain: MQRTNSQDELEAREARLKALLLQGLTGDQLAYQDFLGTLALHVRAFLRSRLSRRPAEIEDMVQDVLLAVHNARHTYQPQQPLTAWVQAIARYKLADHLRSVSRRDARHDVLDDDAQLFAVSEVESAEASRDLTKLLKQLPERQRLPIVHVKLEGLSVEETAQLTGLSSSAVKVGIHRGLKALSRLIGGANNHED

T12: ECF15_436
T12 chain: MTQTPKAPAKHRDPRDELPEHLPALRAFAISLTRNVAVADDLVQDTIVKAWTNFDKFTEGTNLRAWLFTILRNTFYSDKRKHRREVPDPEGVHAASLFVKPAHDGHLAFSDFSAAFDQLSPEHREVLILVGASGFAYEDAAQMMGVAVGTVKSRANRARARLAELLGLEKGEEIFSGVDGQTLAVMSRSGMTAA

T13: ECF25_1643
T13 chain: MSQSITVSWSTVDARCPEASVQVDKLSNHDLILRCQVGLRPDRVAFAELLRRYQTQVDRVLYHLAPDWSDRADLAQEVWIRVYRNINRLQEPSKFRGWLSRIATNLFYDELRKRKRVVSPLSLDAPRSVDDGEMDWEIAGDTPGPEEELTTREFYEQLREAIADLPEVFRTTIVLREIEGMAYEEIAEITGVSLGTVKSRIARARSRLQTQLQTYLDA

T14: ECF35_3582
T14 chain: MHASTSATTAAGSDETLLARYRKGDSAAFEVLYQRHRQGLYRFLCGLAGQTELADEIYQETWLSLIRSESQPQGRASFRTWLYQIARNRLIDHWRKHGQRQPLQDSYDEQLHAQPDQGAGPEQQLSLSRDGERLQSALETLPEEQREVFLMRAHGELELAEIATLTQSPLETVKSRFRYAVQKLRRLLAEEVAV


Legend:
ECF11_3726 = biological target: T1, ECF11_3726
ECF22_1147 = biological target: T2, ECF22_1147
ECF01_3473 = biological target: T3, ECF01_3473
ECF34_1384 = biological target: T4, ECF34_1384
ECF16_3622 = biological target: T5, ECF16_3622
ECF15_524 = biological target: T6, ECF15_524
ECF12_807 = biological target: T7, ECF12_807
ECF04_1609 = biological target: T8, ECF04_1609
ECF17_1691 = biological target: T9, ECF17_1691
ECF28_1088 = biological target: T10, ECF28_1088
ECF16_973 = biological target: T11, ECF16_973
ECF15_436 = biological target: T12, ECF15_436
ECF25_1643 = biological target: T13, ECF25_1643
ECF35_3582 = biological target: T14, ECF35_3582

Row | Binder | fold repression (ECF11_3726) | fold repression (ECF22_1147) | fold repression (ECF01_3473) | fold repression (ECF34_1384) | fold repression (ECF16_3622) | fold repression (ECF15_524) | fold repression (ECF12_807) | fold repression (ECF27_1331) | fold repression (ECF04_1609) | fold repression (ECF17_1691) | fold repression (ECF28_1088) | fold repression (ECF16_973) | fold repression (ECF15_436) | fold repression (ECF25_1643) | fold repression (ECF35_3582)
1 | AS33_423 (protein) MMAMSNTMPDPREPGDVEALLPWYAAGTLNARDARRVADALDRDPALARQYAVILEEYASTIELNESLGAPSSRAMQKLFAAIDAEPARAPGAGQGLGARFAGFFAGLSPKALAWSASVAGLALLLQAGLIGALLTWPHAAPVQTAAYQPQREVARAPASSPAPATVSPPAAAMADRAADAGKSTPPMVMAERSGGPVVRSLAPQSGPRVLVKFAPEARASEIAALLDQYNAVVVDSSRGGLFRLQFGTQSLSKQDQETLIGRLQKEPVVSVVLSAP | 29.3 | 9.02 | 3.36 | 8.97 | 35.1 | 9.15 | 6.47 | 8.68 | 6.18 | 3.16 | 3.17 | 14.6 | 14.3 | 3.19 and 2.96 | 6.37
2 | AS37_2513 (protein) MSSAPATKEEVDFALKVRRALDERAASLPDATTDRLAAARRAALARKKPDAAIVLVPALAGSAGTLELRPPGEPRKSLARRLARAWPLALLLAGLIGIAYWEDMQRTAELADIDAAMLSDNLPLTAYLDHGFNAYLSHTH | 11.6 | 8.31 | 6.84 | 6.47 | 5.36 | 4.06 | 9.33 | 6.45 | 4.3 | 4.17 | 3.31 | 3.54 | 5.3 | 5.22 and 5.59 | 2.62
3 | AS33_375 (protein) MMALSKKMLEQEPSEIELLLPWHAAGTLNARDARRVEDALARDPELAKQYAAIRGEYEETIHLNESLGAPSARAMQKLFGAIDAEPARETGSLPLSARIATFFASLSPRTLAWSASLGAVALVLQAGIIGAVLMKTQPTTFQTASLSTSAPITRELGAAVAPARALVRFTPEARVADITALLDSYQASIIGDAKGGMFRLQFDKAMSQDELASLLGRMQREKFVNLAVAAP | 34.4 | 12.9 | 5.29 | 12.2 | 22.6 | 14.3 | 7.97 | 11.4 | 11.1 | 3.94 | 3.72 | 9.87 | 20.3 | 5.97 and 4.93 | 5.86
4 | AS35_3582 (protein) MNPQKHSASVAEEQMLAHFRAHAPQQPAPALDQAILAAARRQAAHVEPARSWWRRWLEASRRPRWQAAFASLLGVALVLGLVSHNVLDDAERQARPEVAFSDVPLRDGVAGAAAAKRAMRAPAAPAPLSGEMSEPPALLASYASSGEAPQLMAEAAPPAPAALADRPPAQAAQQAKVQAALAGDFVAQARGKAVAVKPEVLDEALGAVLALREQGKTEQAATQLAELQKRFPGENLVERLERLATIAASARKRP | 18.8 | 10.9 | 5.93 | 9.31 | 6.44 | 5.37 | 10.1 | 7.23 | 6.84 | 4.63 | 3.76 | 3.39 | 7.43 | 5.68 and 4.69 | 311
5 | AS38_1322 (protein) MSDGNDARPDARDGHDPGSDARDGHDPGSHARDGHDPGAGPFDGHGPGSDAGDGDDAGPDARDGHGAPAGPAGREQRKHPHDTHDMHDTHDTHAGKGTVNHGPAAQGPDAPGADGPATDEAALRAMMQRAVREMEPSDGTLEHLRRAVPARRARKRQALVGAAAAALFLGTAVPALVHVSNATGAGADPSVAGNASQAQGGASQGKDPAGGQSGVAGTGDTPEDRDKADPKETPGGKEPGAATGAPPSGVPSASSPADVPACAPGSLGPAVASSAEPDSTGVVYGSFRVTNVSSDGCTVTGPGTVVTASLGAAEATRIGTARHAAGDAAAGLPDPSLETASLALAPGAAYEVQFAWVPSETCPTTGGTTGGGSGGPSPDPSPTADTTAAGGTSAGGGEAGPTTQLITEDGPAEGSVSVTYTPEGGSGSATATVSNACAGTVYWTGLLADSGSGA | 11.2 | 6.04 | 4.19 | 6.19 | 4.56 | 4.95 | 5.77 | 5.61 | 4.63 | 2.81 | 3.19 | 4.09 | 5.64 | 4.12 and 4.01 | 2.8
